In patent US20230032643A1 (GlaxoSmithKline, published 2023):

Columns and labels:
[1] = biological target: T1, human CR2 on primary human cells (B cells in PBMCs; tonsil follicular dendritic cells) (human, UniProt P20023 21-1033); test: flow cytometry on primary human tonsil FDCs; unlabelled mAb 1053 titrated, then saturating mAb 1053-PE (1 ug/ml)
T1 construct: Endogenous CR2 on primary human CD20+ B cells or tonsil FDCs; also called CD21
T1 sequence: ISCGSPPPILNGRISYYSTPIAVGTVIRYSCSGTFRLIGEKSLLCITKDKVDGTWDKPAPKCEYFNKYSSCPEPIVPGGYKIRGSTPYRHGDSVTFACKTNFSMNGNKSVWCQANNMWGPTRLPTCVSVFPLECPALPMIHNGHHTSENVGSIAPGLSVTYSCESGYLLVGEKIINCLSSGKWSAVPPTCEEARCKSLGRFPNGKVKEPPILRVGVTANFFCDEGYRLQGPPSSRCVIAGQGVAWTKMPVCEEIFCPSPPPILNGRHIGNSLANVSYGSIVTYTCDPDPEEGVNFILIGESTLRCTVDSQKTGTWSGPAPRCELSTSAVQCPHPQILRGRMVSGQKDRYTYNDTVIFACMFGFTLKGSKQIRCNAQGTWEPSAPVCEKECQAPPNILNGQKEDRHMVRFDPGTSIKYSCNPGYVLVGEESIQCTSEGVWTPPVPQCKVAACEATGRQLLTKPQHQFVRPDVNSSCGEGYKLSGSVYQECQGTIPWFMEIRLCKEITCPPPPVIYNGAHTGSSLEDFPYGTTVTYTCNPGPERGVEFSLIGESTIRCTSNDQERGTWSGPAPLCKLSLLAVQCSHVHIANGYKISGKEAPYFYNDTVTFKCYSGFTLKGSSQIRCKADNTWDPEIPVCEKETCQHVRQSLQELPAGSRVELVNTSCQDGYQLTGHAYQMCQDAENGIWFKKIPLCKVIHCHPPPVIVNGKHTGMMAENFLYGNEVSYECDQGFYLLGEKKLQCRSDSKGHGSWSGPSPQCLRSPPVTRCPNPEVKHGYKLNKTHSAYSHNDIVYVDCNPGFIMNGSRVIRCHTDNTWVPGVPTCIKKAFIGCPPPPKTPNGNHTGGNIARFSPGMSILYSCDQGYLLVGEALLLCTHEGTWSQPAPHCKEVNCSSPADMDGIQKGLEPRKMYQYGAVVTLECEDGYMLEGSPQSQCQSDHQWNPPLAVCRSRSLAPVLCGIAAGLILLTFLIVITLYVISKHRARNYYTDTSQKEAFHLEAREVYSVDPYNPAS

[2] = biological target: T1, human CR2 on primary human cells (B …); test: flow cytometry; inhibition of serum-opsonised PnPS14 binding to CD20+ B cells in human PBMCs, mAb pre-incubated
[3] = biological target: T2, recombinant soluble human CR2 (human, UniProt P20023 21-971, limits assumed); test: SPR (BIACORE T200), HEK-expressed antibody captured on Protein A, soluble CR2 as analyte, 25 C, equilibrium model
T2 construct: it includes the transmembrane and cytoplasmic parts, which a soluble form would lack; also called human CR2 antigen
T2 sequence: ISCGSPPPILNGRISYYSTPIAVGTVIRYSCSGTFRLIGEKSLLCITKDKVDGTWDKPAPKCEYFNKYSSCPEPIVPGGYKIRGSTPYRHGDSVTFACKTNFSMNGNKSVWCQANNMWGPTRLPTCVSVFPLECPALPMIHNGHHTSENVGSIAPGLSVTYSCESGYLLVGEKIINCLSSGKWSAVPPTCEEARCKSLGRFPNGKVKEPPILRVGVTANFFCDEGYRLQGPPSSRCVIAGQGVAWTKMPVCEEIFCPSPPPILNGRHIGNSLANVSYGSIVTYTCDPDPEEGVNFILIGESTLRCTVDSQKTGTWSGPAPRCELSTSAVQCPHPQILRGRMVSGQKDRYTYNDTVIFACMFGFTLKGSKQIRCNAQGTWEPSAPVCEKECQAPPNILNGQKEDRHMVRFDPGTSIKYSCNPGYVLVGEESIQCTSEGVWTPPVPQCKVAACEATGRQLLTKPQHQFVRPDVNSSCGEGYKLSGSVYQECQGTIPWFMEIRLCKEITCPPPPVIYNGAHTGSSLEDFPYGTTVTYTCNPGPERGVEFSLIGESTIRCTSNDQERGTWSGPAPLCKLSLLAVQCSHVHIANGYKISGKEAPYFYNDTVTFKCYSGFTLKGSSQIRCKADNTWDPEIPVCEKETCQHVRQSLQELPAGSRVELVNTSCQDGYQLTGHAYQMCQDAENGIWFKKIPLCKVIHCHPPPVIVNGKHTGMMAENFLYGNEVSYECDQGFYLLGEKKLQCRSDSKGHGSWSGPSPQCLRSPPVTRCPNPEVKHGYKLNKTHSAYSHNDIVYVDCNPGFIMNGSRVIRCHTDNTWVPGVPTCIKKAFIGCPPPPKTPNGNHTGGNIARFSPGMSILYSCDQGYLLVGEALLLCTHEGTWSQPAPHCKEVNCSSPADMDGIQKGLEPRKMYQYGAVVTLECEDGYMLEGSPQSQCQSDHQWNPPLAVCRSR

[4] = biological target: T3, recombinant soluble cynomolgus macaque CR2 (cynomolgus macaque, UniProt A0A2K5URG6 21-972); test: as above
T3 construct: also called Cyno CR2; cyno CR2 antigen
T3 sequence: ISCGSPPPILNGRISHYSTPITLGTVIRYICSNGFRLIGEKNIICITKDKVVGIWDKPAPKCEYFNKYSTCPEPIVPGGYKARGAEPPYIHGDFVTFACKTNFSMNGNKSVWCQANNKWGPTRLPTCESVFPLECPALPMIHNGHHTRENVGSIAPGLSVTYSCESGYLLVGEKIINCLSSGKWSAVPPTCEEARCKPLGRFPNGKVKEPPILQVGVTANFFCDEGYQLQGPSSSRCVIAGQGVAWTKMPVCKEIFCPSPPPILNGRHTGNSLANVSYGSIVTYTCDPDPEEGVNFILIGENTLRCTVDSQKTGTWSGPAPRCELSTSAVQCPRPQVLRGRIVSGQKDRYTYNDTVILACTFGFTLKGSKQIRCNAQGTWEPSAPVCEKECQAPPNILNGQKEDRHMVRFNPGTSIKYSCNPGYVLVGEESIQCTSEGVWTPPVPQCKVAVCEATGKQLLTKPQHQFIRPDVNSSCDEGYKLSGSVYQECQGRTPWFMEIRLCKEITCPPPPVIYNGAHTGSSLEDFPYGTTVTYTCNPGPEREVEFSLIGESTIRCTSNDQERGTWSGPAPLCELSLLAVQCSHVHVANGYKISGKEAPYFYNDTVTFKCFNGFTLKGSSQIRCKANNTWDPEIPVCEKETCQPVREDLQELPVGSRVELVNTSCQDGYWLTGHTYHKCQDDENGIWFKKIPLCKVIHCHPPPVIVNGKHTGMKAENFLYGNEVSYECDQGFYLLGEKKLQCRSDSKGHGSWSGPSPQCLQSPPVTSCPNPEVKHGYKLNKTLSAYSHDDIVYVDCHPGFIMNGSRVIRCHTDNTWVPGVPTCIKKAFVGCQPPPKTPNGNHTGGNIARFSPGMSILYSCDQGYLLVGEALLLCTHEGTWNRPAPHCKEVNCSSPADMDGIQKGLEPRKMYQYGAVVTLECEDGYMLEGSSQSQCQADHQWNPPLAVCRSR

[5] = biological target: T1, human CR2 on primary human cells (B …); test: flow cytometry; inhibition of C3dg:streptavidin-APC ligand complex binding to primary human tonsil FDCs, mAb pre-incubated
[6] = biological target: T1, human CR2 on primary human cells (B …); test: flow cytometry; inhibition of C3dg:Streptavidin-APC complex binding to CD20+ B cells in human PBMCs, mAb pre-incubated

EC50 [1]: 0.0622 nM | IC50 [2]: 0.0379 nM | Kd [3]: 0.257 nM | Kd [4]: 0.287 nM | IC50 [5]: 0.047 nM | IC50 [6]: 0.0119 nM
B1: mAb 1053 (antibody, human IgG1, kappa, V domains shown)
VH: QLQLQESGPGLVKPSETLSLTCTVSGGSISSDSYYWGWIRQPPGKGLEWIGSIHYSGSTYYNPPLESRVTISVDTSKNQFSLKLSSVTAADTAVYYCAREGGPRHGWSWGQGTLVTVSS
VL: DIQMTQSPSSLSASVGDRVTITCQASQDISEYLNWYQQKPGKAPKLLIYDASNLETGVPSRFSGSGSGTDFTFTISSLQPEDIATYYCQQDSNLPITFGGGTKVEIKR
notes: CHO-expressed unless stated otherwise
